Target: complex III (ubiquinone cytochrome C oxidoreductase) (mouse (endogenous in cerebellum)) (UniProt Q9CZ13)
Assay: native gel or EMSA; blue native PAGE (4 to 12% NativePAGE) of cerebellum mitochondria solubilised in 1% digitonin, WT and Mecr285/del10 mice; transferred to PVDF and immunoblotted; in-gel activity assays on parallel gels

stoichiometry N: 2
Substance: complex III (ubiquinone cytochrome C oxidoreductase) (from UniProt Q9CZ13 35-480)
